Measurements published in the supplement of paper PMC6757056.
± gives the standard deviation of the averaged measurements.

B1: library; a variant is named by its letters at N, in order (parent)
chain: GCUGUCACCGGUGUAUUACCCUAGUGGUCGACCGGUCUGAUGAGUCUNNNNNNAGACGAAACAGC

Assays:
hypoxanthine [1] = variants of: B1; assay: FACS-Seq fitted mean relative fluorescence mCherry/BFP without ligand (log10 relative fluorescence); ligand: hypoxanthine (xanthine aptamer); higher = higher reporter protein expression; conditions: HEK293T, ligand present: no
Procedure, shortened: (§1)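 After lentiviral transduction, HEK293T library cells bearing an mCherry ribozyme-switch reporter and an EF1α-BFP marker were enriched. They were then held for 48 h with or without ligand and sorted by mCherry/BFP into 6 bins, and each bin's genomic DNA was PCR-amplified, barcoded and MiSeq-sequenced. Fluorescence is expressed as a normalized fitted mean: the normal mean of log10(mCherry/BFP) bin counts, scaled to five spiked-in control ribozymes.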

hypoxanthine [2] = variants of: B1; assay: normalized RNA/DNA level with ligand (relative to sTRSVctl = 100) (log10 (% of sTRSVctl)); ligand: hypoxanthine (xanthine aptamer); higher = less ribozyme self-cleavage, higher mRNA level; conditions: ligand concentration (+) RNA-Seq: 5 mM, HEK293T, reporter: mCherry (pCS4076), ligand present: yes
Procedure, shortened: (§2)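 Library plasmids encoding reporter-linked ribozyme switches (mCherry, or eGFP for some folinic acid experiments) were transfected into HEK293T at 4 µg per 6-well well. Ligand, when used, was added 1 h before transfection. Total RNA was extracted with EDTA 72 h later, then reverse-transcribed, amplified, barcoded and sequenced. RNA level was RNA reads over DNA reads, divided by a spiked-in non-cleaving control (or the top 25 sequences), ×100, log10; only sequences with ≥100 DNA reads were kept.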

hypoxanthine [3] = variants of: B1; assay: normalized RNA/DNA level without ligand (relative to sTRSVctl = 100) (log10 (% of sTRSVctl)); ligand: hypoxanthine (xanthine aptamer); higher = less ribozyme self-cleavage, higher mRNA level; conditions: HEK293T, reporter: mCherry (pCS4076), ligand present: no
Procedure, shortened: as §2

hypoxanthine [4] = variants of: B1; assay: FACS-Seq fitted mean relative fluorescence mCherry/BFP with ligand (log10 relative fluorescence); ligand: hypoxanthine (xanthine aptamer); ligand concentration (+) FACS-Seq: 5 mM; higher = higher reporter protein expression; conditions: HEK293T, ligand present: yes
Procedure, shortened: as §1

Variant | FACS-Seq fitted mean (log10) (hypoxanthine [1]) | normalized RNA/DNA level with ligand (log10) (hypoxanthine [2]) | normalized RNA/DNA level without ligand (log10) (hypoxanthine [3]) | FACS-Seq fitted mean (log10) (hypoxanthine [4])
CGUGGA | 0.123 ± 0.011 | 1.96 ± 0.02 | 1.729 ± 0.0031 | 0.396 ± 0.057
AUGUGG | -0.193 ± 0.082 | 1.756 ± 0.0083 | 1.27 ± 0.11 | -0.0634 ± 0.1
CUGAAA | 0.56 ± 0.015 | 1.93 ± 0.027 | 1.74 ± 0.018 | 0.587 ± 0.036
UAAUUU | -0.253 ± 0.046 | 1.98 ± 0.034 | 1.892 ± 0.01 | -0.129 ± 0.063
GGAAAA | -0.00225 ± 0.06 | 1.925 ± 0.018 | 1.686 ± 0.006 | 0.168 ± 0.059
AAGAUU | -0.294 ± 0.047 | 1.9382 ± 0.00039 | 1.805 ± 0.016 | 0.11 ± 0.042
GUAGGG | 0.143 ± 0.034 | 1.86 ± 0.055 | 1.49 ± 0.037 | 0.5302 ± 0.0037
CAUCGA | 0.435 ± 0.017 | 1.97 ± 0.052 | 1.84 ± 0.029 | 0.6297 ± 0.0034
ACGCGG | -0.216 ± 0.014 | 1.6394 ± 0.00079 | 1.22 ± 0.012 | 0.465 ± 0.047
GAGUAA | 0.154 ± 0.061 | 1.878 ± 0.015 | 1.54 ± 0.023 | 0.427 ± 0.056
CAAUCC | 0.406 ± 0.038 | 1.97 ± 0.086 | 1.82 ± 0.026 | 0.468 ± 0.05
ACAUAG | 0.305 ± 0.026 | 1.84 ± 0.072 | 1.52 ± 0.024 | 0.522 ± 0.046
AAAAAA | 0.738 ± 0.02 | 1.9 ± 0.042 | 1.8 ± 0.033 | 0.664 ± 0.03
AAAAAU | 0.418 ± 0.0049 | 1.9 ± 0.06 | 1.74 ± 0.023 | 0.55 ± 0.021
GCCUAA | 0.363 ± 0.14 | 1.94 ± 0.071 | 1.8319 ± 0.00042 | 0.558 ± 0.036
CAGCGU | -0.166 ± 0.056 | 1.967 ± 0.017 | 1.89 ± 0.046 | -0.185 ± 0.11
CUUGAA | 0.0914 ± 0.0068 | 1.95 ± 0.041 | 1.706 ± 0.015 | 0.182 ± 0.0048
GCAUAU | 0.326 ± 0.025 | 1.93 ± 0.031 | 1.736 ± 0.0026 | 0.329 ± 0.014

Variant | FACS-Seq fitted mean (log10) (hypoxanthine [1]) | normalized RNA/DNA level with ligand (log10) (hypoxanthine [2]) | normalized RNA/DNA level without ligand (log10) (hypoxanthine [3]) | FACS-Seq fitted mean (log10) (hypoxanthine [4])
CAAGUC | 0.736 ± 0.067 | 1.95 ± 0.069 | 1.921 ± 0.018 | 0.635 ± 0.04
AUUCAU | 0.124 ± 0.035 | 1.93 ± 0.049 | 1.8 ± 0.064 | 0.262 ± 0.046
AUAUAA | 0.487 ± 0.056 | 1.883 ± 0.015 | 1.77 ± 0.027 | 0.6452 ± 0.0064
AAGCGA | 0.221 ± 0.0035 | 1.91 ± 0.052 | 1.43 ± 0.024 | 0.391 ± 0.04
UAGUAG | 0.218 ± 0.026 | 1.86 ± 0.04 | 1.49 ± 0.058 | 0.441 ± 0.097
UCGUAG | 0.444 ± 0.042 | 1.88 ± 0.031 | 1.5605 ± 0.0013 | 0.642 ± 0.051
GAGAUG | 0.1129 ± 0.00042 | 1.65 ± 0.064 | 1.14 ± 0.05 | 0.707 ± 0.033
GUAUCU | 0.165 ± 0.12 | 1.966 ± 0.0064 | 1.94 ± 0.025 | 0.536 ± 0.059
GCCGUU | -0.297 ± 0.0052 | 1.978 ± 0.019 | 1.92 ± 0.051 | 0.037 ± 0.093
UUGUAU | -0.614 ± 0.05 | 1.94 ± 0.077 | 1.93 ± 0.026 | -0.338 ± 0.072
AGUAUA | 0.449 ± 0.0061 | 1.91 ± 0.079 | 1.7692 ± 0.0007 | 0.472 ± 0.057
ACUGAA | 0.038 ± 0.062 | 1.92 ± 0.079 | 1.737 ± 0.0053 | 0.0938 ± 0.16
GAUUGC | 0.4839 ± 0.0013 | 1.87 ± 0.054 | 1.65 ± 0.043 | 0.553 ± 0.01
AACGGA | 0.375 ± 0.033 | 1.917 ± 0.01 | 1.62 ± 0.035 | 0.525 ± 0.041
GCGUAU | 0.549 ± 0.031 | 1.83 ± 0.037 | 1.49 ± 0.046 | 0.824 ± 0.043
ACGCAA | 0.184 ± 0.18 | 1.88 ± 0.022 | 1.55 ± 0.039 | 0.149 ± 0.02
CUUGCU | 0.359 ± 0.037 | 2 ± 0.018 | 1.94 ± 0.097 | 0.458 ± 0.056
